Test [1] deals with T1, RpfG-MBP (Lysobacter enzymogenes).
T1 chain: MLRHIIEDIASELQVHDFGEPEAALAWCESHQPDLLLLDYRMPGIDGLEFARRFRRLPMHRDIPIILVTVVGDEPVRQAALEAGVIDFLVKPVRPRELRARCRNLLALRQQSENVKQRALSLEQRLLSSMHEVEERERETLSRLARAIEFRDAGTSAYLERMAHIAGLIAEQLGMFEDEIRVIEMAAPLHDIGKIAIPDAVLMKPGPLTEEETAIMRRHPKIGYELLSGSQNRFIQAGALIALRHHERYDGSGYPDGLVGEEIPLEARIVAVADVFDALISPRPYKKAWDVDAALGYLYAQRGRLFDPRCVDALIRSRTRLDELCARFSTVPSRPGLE
In words: SPR.

In test [2] the target is T1, RpfG-MBP. In words: SPR. (In general: In SPR one partner is held on a chip, and binding of the other changes the refractive index at the surface.)

The values that follow come from PMC8463545 (2021).

What is called koff is the first-order rate constant of dissociation.

B1: HtsH3C-Myc-His (domain or fragment)
chain: not shown
modifications: Phosphorylated as purified (CIAP-sensitive). Primers give (M)AKTRFL... to ...ARRGEG (C-terminus). Positions are inferred from the candidate's His-kinase domain start. Assignment of this entry to HtsH3 is inferred. The entry is probably not from strain OH11.
On to B1, for which the off-rate constant (koff) in the test with RpfG-MBP [1] was determined as 0.000738 s⁻¹. Besides, the Ka in the test with RpfG-MBP [2] turned out to be 5.96e+06 M⁻¹.

B2: HtsH1C-Flag-His (domain or fragment)
chain: not shown
modifications: Phosphorylated as purified (CIAP-sensitive). Limits from the expression primers: (M)AKTRFL... to ...LFEREA, just before the His-kinase domain to the C-terminus. The start codon Met and Flag/His tags are left out. Positions are inferred from the candidate's domain features. The entry is probably not from strain OH11.
In the test with RpfG-MBP [1], B2 showed a koff of 0.00118 s⁻¹. The molecule also came in with a Ka with RpfG-MBP [2] of 1.5e+07 M⁻¹.

B3: HtsH2C-HA-His (domain or fragment)
chain: not shown
modifications: Phosphorylated as purified (CIAP-sensitive). Primers give (M)AKTRFL... to ...DAADAP (C-terminus). The candidate lists no features, so the start is estimated from the paralogues' fragment lengths and may be off by a few residues. Assignment of this entry to HtsH2 is inferred. The entry is probably not from strain OH11.
Turning to B3, the koff in the test with RpfG-MBP [1] stood at 0.00129 s⁻¹. Further, the Ka with RpfG-MBP [2] is 3.34e+06 M⁻¹.
